Results from patent JP2023550785A (dated 2023).

How the values were obtained:
[1] = biological target: T1, HCoV-HKU1 prefusion-stabilized spike (S) protein / S ectodomain trimer (human coronavirus HKU1, UniProt Q5MQD0 13-1300)
T1 sequence: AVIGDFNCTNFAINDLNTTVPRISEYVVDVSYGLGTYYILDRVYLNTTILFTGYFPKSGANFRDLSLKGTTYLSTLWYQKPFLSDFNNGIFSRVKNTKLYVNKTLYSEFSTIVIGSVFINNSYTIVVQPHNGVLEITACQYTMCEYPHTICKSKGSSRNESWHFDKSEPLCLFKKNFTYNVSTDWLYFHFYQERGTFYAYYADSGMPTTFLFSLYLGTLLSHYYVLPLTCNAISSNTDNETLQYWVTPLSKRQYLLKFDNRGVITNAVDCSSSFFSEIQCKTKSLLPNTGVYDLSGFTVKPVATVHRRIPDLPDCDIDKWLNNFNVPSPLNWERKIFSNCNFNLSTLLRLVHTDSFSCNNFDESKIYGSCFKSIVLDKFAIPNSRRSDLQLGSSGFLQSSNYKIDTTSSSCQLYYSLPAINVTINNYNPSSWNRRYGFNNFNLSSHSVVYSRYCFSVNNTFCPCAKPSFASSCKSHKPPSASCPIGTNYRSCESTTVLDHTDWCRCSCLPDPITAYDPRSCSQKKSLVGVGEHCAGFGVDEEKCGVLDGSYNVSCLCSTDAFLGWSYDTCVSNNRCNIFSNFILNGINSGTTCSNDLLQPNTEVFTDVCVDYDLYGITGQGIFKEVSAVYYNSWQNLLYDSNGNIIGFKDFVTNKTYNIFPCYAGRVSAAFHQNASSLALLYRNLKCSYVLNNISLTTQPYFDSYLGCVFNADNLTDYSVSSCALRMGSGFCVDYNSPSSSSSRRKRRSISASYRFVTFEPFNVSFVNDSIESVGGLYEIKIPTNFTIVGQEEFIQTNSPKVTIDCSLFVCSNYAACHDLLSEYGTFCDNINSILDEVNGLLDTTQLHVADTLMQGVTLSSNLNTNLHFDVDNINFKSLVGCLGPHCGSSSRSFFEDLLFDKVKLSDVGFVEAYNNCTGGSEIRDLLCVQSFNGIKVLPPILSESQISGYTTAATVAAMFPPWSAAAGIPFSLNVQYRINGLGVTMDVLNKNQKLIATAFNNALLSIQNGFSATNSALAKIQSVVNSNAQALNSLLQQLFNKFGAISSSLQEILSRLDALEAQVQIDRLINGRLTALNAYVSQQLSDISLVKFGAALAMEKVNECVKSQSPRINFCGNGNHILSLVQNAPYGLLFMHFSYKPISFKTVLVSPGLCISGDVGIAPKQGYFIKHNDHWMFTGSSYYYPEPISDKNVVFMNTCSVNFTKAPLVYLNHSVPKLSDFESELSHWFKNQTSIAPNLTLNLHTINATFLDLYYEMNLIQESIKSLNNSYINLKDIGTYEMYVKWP

[2] = biological target: T2, spike protein of alphacoronavirus 229E-CoV (HCoV-229E, UniProt P15423 16-1115); test: ELISA on alphacoronavirus spike proteins (Fig 37)
T2 sequence: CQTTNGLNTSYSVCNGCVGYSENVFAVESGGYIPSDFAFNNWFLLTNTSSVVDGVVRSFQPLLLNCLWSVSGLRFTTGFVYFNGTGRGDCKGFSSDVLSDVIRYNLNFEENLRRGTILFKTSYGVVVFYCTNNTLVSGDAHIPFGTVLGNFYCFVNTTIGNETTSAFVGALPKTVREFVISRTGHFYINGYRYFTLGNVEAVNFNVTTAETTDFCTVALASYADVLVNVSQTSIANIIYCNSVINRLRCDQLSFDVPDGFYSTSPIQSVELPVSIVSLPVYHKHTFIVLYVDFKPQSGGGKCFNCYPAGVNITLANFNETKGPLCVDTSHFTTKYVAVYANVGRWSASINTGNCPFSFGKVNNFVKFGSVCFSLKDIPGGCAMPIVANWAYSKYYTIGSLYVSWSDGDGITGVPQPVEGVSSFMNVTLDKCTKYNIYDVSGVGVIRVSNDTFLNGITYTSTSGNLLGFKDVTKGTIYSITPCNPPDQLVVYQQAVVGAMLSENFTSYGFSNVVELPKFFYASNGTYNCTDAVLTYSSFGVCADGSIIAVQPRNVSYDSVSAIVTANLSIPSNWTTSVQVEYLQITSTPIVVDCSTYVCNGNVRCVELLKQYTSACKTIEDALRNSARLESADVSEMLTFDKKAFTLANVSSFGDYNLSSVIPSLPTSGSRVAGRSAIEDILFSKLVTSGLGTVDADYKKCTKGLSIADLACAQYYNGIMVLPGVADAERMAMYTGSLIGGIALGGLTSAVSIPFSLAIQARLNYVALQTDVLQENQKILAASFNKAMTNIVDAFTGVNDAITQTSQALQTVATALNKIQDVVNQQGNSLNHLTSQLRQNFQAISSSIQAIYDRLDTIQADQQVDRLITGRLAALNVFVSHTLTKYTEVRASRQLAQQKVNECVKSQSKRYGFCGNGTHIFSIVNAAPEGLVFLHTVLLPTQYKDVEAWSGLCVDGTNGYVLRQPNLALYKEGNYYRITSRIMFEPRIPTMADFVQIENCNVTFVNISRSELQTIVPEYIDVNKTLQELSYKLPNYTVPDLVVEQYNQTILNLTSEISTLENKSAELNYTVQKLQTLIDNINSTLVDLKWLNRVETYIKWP

B1: antibody S2P6 (antibody 420 1 1), human monoclonal antibody expressed as recombinant human IgG1 (antibody, V domains shown)
VH: EVQLVQSGAEVKKPGASVKVSCKASGYTFTSQYMHWVRQAPGQGLEWIGIINPSGVHTSYAQKFQGRVTLTRDTSTSTLYMELSSLRSEDTAVYYCARGSPKGAFDYWGQGTLVTVSS
VL: not shown
Kd [1]: 2.44 nM | binding result [2]: no binding
